A short description of the data set: soluble on expression in E. coli; label from the status in PepcDB or PDB records.
In the case of “MAHHHHHHGAYDVARVRGLHPSLGDGWVHFDAPAGMLIPDSVATTVSTAFRRSGASTVGAHPSARRSAAVLDAAREAVADLVNADPGGVVLGADRAVLLSLLAEASSSRAGLGYEVIVSRLDDEANIAPWLRAAHRYGAKVKWAEVDIETGELPTWQWESLISKSTRLVAVNSASGTLGGVTDLRAMTKLVHDVGALVVVDHSAAAPYRLLDIRETDADVVTVNAHAWGGPPIGAMVFRDPSVMNSFGSVSTNPYATGPARLEIGVHQFGLLAGVVASIEYLAALDESARGSRRERLAVSMQSADAYLNRVFDYLMVSLRSLPLVMLIGRPEAQIPVVSFAVHKVPADRVVQRLADNGILAIANTGSRVLDVLGVNDVGGAVTVGLAHYSTMAEVDQLVRALASLG”, the “soluble on expression in E. coli” value is “soluble”.

Regarding “MAHHHHHHMAAVFSTDASPSADVAVTAQFRVARGEYPTLAVLKQVPLLDDEALRLAMEKLAARRAGHTAGGGADGEPEGVDYTRYTTVDGEGTQACPCKDTGVWPAWVFSPGIQLMARRLRVRELSLEFLSLIDSMMAVNPADRPTAEAVLLDSPVFGMRMPWWEKVVEKAVRRVVEGKENVLLDVCVGDSDEEEEEDEEEAALVRRTMMPLVLPAENHGYVPHNVIHWWNVDLTRGEPDHTKWLSPTSLLASLLTTVRDLTGLEAARDAQDPVLREVPLYTATSLQFVERVCVPVRGTDVSARKIEDGPLFRELEAGGHSTGFFIHVQIRIRAIARAGQVLMANGWAEEEDVADQEEMARRAMEELVATTEKWLLSREATTGVAALHVLPWVSWHLNEEEAGTDGSTQHCFIVEYAAAGPGDGQPQPCANESSVTGEVSSVFRDWRANLTDGLQRLCCDDATAPDETTHDGASNAPRGGLRLEEKLEAMLDALEAVESELMERQKRNEAHQGLLQDHVVHWLSVRAAPSVERCMETLQGVCGGGDVSSQQIHEWILTTVFTSEGAMALMPVLRI”, the “soluble on expression in E. coli” value is “not soluble”.

“MAHHHHHHMADDILQCVHKEFKYVLISSDINDQIKELTFSGSERKFQGVLASYFRRIIFDEKGKNELKEVIKEKLKVSKENDNGGTERAGAEQEGDQNGQKSGQPNGAELNASAITPDLINNAVESSQTYQIIPLTIPTEKTNFFAVNCYIDDIGRIKKLPYNSRASRICSTEIYGDAFLSKTYDNEDFRRCDFTISEYEQFLQNPPKAENRYPPSDTMCVSG”: the “soluble on expression in E. coli” value is listed as “soluble”.

With “MAHHHHHHMADNITNDKRDIFKIHKWSAVAAWSWDISVDNCAICRNHIMDLCIECQAKTTDHENDKDKKIDKEGCTVAWGVCNHAFHLHCISRWIKARQVCPLDNTTWEFQKATD”, the “soluble on expression in E. coli” value was “soluble”.

As for “MAHHHHHHMADRADHYINQLNDAYALKVGGIYNHSTLASSNHNKAHTFGSMPHALIQMFEGDVVKAVEAYHKTFPEDDLYALVDFHNDVISDSLACLKAFKNKLKAVRIDTSKALIDKMFSEGEAEYGVTQNQVKRLREALDANGGKHVKITVSSGFNAKRIKEFEDENTPVDTYGVGASLLKI”, the “soluble on expression in E. coli” value is “soluble”.

As for “MAHHHHHHMAEALHERHFFDKFIKMNIPDDYLDASRFRVIPDNQEVYVHKFQDKCLIIEILCFQNMNIQEKGNFYFYDLAKENDSIENVIITSNHSVPHSQGNYILLVGRQKIKKNNSSTHEPILLYICIFPLEEHNADIIITWNVPKEDMDIQPELETFNEMMQSFRILDYTLFV”, the “soluble on expression in E. coli” value is on record as “soluble”.

On to “MAHHHHHHMAEHLLEQLRDVMVLQPSDGAVGNGEMDTSAANSHKYSVVSTFTNSPFVAVLEDTENNEDDEKELIRLLDELSHRIHCSDAADDVERPSGSFAVEKVEAPTLRASHMAPPIYGSPAPAGGSPFNYASCVSQTTKPPPSFAEAVATTPPLSEVPVELSPLAAHYVPPMPAVQQDPILLRNTHGVFMLRPITKPTPPYTPPSLTSSISQPPRYALPPAALPQSQPHFLGSSLAQVGGLADAQIPKKSSFSPYEIPHSMNNVIGGSQILGTGGAGNYTYISTSVKSKSTSHMQPPPPYPS”, for which the “soluble on expression in E. coli” value is given as “not soluble”.
